Experiment [1] has as its target T1, recombinant VEGFR-1/Fc chimera (UniProt P17948 27-758).
T1 construct: Vascular endothelial growth factor receptor-1 (VEGFR-1), extracellular region, fused with the Fc region of human immunoglobulins; Bought chimera; source: bought: R&D Systems
In words: ELISA; 96-well Maxisorp plates coated with 10 ug/ml sVEGFR-1; binding buffer PBS with 3% BSA, 1 mM CaCl2, 0.5 mM MgCl2; 2 ug/ml VEGFR-1/Fc, 4 ug/ml VEGFR-2/Fc or 1 ug/ml NRP-1/Fc added; detection with alkaline phosphatase-conjugated anti-human Fc antibody, absorbance at 405 nm; selected wells pre-incubated with 5 ug/ml D16F7 mAb for 30 min at room temperature. The following applies: both partners purified.

In experiment [2] the target is T2, recombinant VEGFR-2/Fc chimera (UniProt P35968 20-764).
T2 construct: Vascular endothelial growth factor receptor-2 (VEGFR-2), extracellular region, fused with the Fc region of human immunoglobulins; Bought chimera; source: bought: R&D Systems
The experiment is described as above. The following applies: both partners purified.

Experimental findings from PMC5341950, “Antitumor activity of a novel anti-vascular endothelial growth factor receptor-1 monoclonal antibody that does not interfere with ligand binding” (Oncotarget, 2016) are described below.

T2 sequence (P35968 20-764, stated change not applied): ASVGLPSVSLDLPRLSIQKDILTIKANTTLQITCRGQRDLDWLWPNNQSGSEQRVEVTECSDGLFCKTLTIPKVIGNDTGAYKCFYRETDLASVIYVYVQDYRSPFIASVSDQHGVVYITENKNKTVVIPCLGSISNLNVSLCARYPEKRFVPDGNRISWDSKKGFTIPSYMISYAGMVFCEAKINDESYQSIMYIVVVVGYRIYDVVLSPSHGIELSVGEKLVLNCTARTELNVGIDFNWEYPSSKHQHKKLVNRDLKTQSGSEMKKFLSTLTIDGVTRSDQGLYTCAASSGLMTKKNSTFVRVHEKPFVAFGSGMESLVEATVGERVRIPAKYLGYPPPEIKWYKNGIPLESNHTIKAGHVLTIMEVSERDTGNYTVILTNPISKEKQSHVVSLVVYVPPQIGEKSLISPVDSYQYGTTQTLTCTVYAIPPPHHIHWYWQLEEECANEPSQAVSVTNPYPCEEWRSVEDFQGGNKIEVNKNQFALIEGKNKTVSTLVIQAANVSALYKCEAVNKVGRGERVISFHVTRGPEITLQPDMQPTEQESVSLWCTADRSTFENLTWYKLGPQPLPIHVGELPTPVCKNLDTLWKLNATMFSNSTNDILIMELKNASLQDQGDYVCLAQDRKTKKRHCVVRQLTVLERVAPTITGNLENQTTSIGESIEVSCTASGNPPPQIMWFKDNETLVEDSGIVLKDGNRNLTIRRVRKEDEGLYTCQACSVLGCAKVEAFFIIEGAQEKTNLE

B1: native human soluble VEGFR-1 (sVEGFR-1) (receptor, UniProt P17948-2 27-687, looked up)
chain: SKLKDPELSLKGTQHIMQAGQTLHLQCRGEAAHKWSLPEMVSKESERLSITKSACGRNGKQFCSTLTLNTAQANHTGFYSCKYLAVPTSKKKETESAIYIFISDTGRPFVEMYSEIPEIIHMTEGRELVIPCRVTSPNITVTLKKFPLDTLIPDGKRIIWDSRKGFIISNATYKEIGLLTCEATVNGHLYKTNYLTHRQTNTIIDVQISTPRPVKLLRGHTLVLNCTATTPLNTRVQMTWSYPDEKNKRASVRRRIDQSNSHANIFYSVLTIDKMQNKDKGLYTCRVRSGPSFKSVNTSVHIYDKAFITVKHRKQQVLETVAGKRSYRLSMKVKAFPSPEVVWLKDGLPATEKSARYLTRGYSLIIKDVTEEDAGNYTILLSIKQSNVFKNLTATLIVNVKPQIYEKAVSSFPDPALYPLGSRQILTCTAYGIPQPTIKWFWHPCNHNHSEARCDFCSNNEESFILDADSNMGNRIESITQRMAIIEGKNKMASTLVVADSRISGIYICIASNKVGTVGRNISFYITDVPNGFHVNLEKMPTEGEDLKLSCTVNKFLYRDVTWILLRTVNNRTMHYSISKQKMAITKEHSITLNLTIMNVSLQDSGTYACRARNVYTGEEILQKKEITIRGEHCNKKAVFSRISKFKSTRNDCTTQSNVKH
notes: The methods call it 'Native human sVEGFR-1'; also called recombinant sVEGFR-1; source: bought: ReliaTech
Take B1: the binding result in experiment [1] and in experiment [2] was “binds” each time.
